In US20220380473A1, “ANTI-GAL3 ANTIBODIES AND USES THEREOF” (TrueBinding, Inc., priority 2019, published 2022):

Legend:
[1] = tested on: STAM HFD-CDAA mouse model of liver fibrosis; test: STAM CDAA-HFD mouse model of liver fibrosis; format: in vivo
Experimental: To confirm that the observed reduction of liver fibrosis in the MCD mouse model was not unique to this setting, the activity of mIMT001 was explored in the STAM HFD-CDAA mouse model of liver fibrosis. Briefly, Two-day-old male C57Bl/6 mice were injected by a single subcutaneous injection of 200 ug of streptozotocin to cause islet destruction and then fed CDAA-high fat diet (Research Diet #A06071302) starting at 4 weeks of age and continuing for the entire duration of each study. At 8 weeks of age, mice were divided into two groups (seven mice each) based on ALT score. Mice were treated human anti-mIgG4 isotype control (hIgG4, 10 mg/kg) or human anti-Gal3 antibody (IMT001-4, 10 mg/kg) twice a week by intraperitoneal injection for 4 weeks. All animal care and procedures were approved by the Immutics IACUC.

[2] = target: T1, interaction between Gal3 and TIM-3 (Mus musculus, UniProt P16110); test: Blocking ELISA, mouse Gal3 coated plate and mouse TIM-3 Fc; format: binding; conditions: mGal3 coated plate, mouse TIM-3 Fc
T1 construct: purchased BioLegend (mouse Gal3); R&D systems (mouse TIM-3 Fc)
T1 sequence (P16110 2-264 limits assumed): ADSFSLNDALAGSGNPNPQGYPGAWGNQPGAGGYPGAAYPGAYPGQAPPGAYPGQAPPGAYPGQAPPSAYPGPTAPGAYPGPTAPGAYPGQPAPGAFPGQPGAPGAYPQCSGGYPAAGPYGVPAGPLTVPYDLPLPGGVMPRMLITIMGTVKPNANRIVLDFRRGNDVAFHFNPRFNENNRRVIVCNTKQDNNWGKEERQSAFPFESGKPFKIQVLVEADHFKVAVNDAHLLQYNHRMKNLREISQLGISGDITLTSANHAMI
Experimental: ELISA assays were also performed to test the interaction between Gal3 and TIM-3. 96 well ELISA plates (ThermoFisher Scientific) were coated with mouse Gal3 protein (BioLegend, San Diego, Calif.) in PBS or human Gal9 protein (R&D systems) in PBS or phosphatidylserine (PS) (Sigma) in ethanol and incubated at 4° C. for overnight. The plate was washed three times with TBST and then blocked with PBS buffer containing 2% BSA at room temperature for 1 hour. In FIG. 5A, different anti Gal3 antibodies, i.e. mGal3 polyclonal antibody (R&D systems), mAb IMT001 (also described in WO 2019/023247, hereby expressly incorporated by reference in its entirety), mAb M3/38 (Thermofisher Scientific) (FIG. 5A), were added to well that has been coated with Gal3. The antibodies were incubated for 10 minutes and mouse TIM-3 Fc were then added to the plates and incubated for an additional one-hour incubation. Plates were then washed for three times and followed by incubation with anti-human-IgG-HRP (Jackson ImmunoResearch) for 1 h at room temperature. The color was developed with TMB subtract (GeneTex, Irvine, Calif.) after three time washes with TBST and the reaction was terminated with 1N HCl. The optical density (OD) was read at 450 nm. The results were expressed as the average OD of duplicates±SD. […]

[3] = tested on: a-SMA and fibronectin; test: N-IF mouse liver fibrosis, western blot of fibrosis markers; format: in vivo; conditions: 10 mg/kg every fourth day for 40 days, vs mIgG2b
Experimental: N-IF mice were generated by crossing 24αβNOD mice and NOD.Rag2−/− mouse strains. The N-IF mice were backcrossed with the B6.Rag2−/− mouse strains for 10 generations. Mice (male and female) were separated into two groups: IMT001 antibody treatment group and mIgG2b antibody control group. Antibodies were administered to the animals every fourth day for 40 days, at 10 mg/kg body weight and the animals were subsequently sacrificed. All efforts were made to minimize suffering. Liver and Kidney tissues were collected and snap frozen in liquid nitrogen for western blot analysis. Tissue processing and western blot analysis were performed as in Example 19. GAPDH was used a loading control reference.

[4] = tested on: α-smooth muscle actin (SMA) and fibronectin; test: UUO mouse kidney fibrosis, western blot of fibrosis markers (Example 19); format: in vivo; conditions: 10 mg/kg i.p., 14 day treatment, vs IgG2b control
Experimental: Unilateral […] obstruction (UUO) mouse model was created with 8-week old male C57BL/6 mice. The animals were randomly assigned into three groups (n=5); sham, mouse IgG2b control, and IMT001. […] On day 0, surgery was performed to ligate the left ureter in each animal. Following the surgery, the animals were administrated intraperitoneally either 10 mg/kg of mIgG2b (BioXCell) or IMT001 on day 1, 5 and 10. The animals in the sham group were left untreated. On day 4, 8 and 15 the animals were humanely sacrificed and left kidney tissues were surgically removed and snap frozen for western blot analysis.
30 mg snap frozen kidney tissue from 14 day treatment UUO group was homogenized in 500 μl of RIPA buffer (Thermo Scientific). The homogenate was left on ice for 10 minutes and then centrifuged at 12000 rpm for 10 min at 4° C. in 1.5 mL Eppendorf tubes. The supernatant containing protein was collected and was quantified by A280 absorbance with a Nanodrop (ThermoFisher). Protein samples were boiled in 4× sample Buffer containing β-mercaptoethanol (Bio-Rad) for 10 min. […] The membranes were washed three times with PBST and protein bands were detected by enhanced chemiluminescence using standard ECL detection methods as recommended by the manufacturer (Bio-Rad) and developed. […]

block of Gal3 binding to TIM-3 [2]: blocked
B1: IMT001: anti-Gal3 monoclonal antibody (Immutics); printed as mIMT001 (IMT001), murine (antibody, V domains shown)
VH: QIQLVQSGPELKKPGETVKISCKASGYTFTNYGMNWVKQAPGKGLKWMGWINTNTGEPTYVEEFKGRFAFSLETSASTAYLQINNLKNEDTATYFCAPYDNFFAYWGQGTLVTVSA
VL: DIVITQDELSNPVTSGESVSISCRSSKSLLYKDGKTYLNWFLQRPGQSPQLLIYLMSTHASGVSDRFSGSGSGTDFTLEISRVKAEDVGVYYCQQLVDYPLTFGAGTKLELK
% area picosirius red staining ([1]; liver, 10 mg/kg twice a week i.p. for 4 weeks): 1.66%
reduction of picosirius red staining ([1]; vs isotype control): 67%
expression of fibrotic markers a-SMA and fibronectin in liver [3]: significant reductions
expression of fibrotic markers a-SMA and fibronectin in kidney [4]: reduced expression of both fibrotic markers
